Experimental data from US20150374698A1.

Target: AVP V1A receptor (mouse) (UniProt Q62463)
Test: cell-based or functional assay

Sequence of AVP V1A receptor (mouse) (Q62463 whole entry): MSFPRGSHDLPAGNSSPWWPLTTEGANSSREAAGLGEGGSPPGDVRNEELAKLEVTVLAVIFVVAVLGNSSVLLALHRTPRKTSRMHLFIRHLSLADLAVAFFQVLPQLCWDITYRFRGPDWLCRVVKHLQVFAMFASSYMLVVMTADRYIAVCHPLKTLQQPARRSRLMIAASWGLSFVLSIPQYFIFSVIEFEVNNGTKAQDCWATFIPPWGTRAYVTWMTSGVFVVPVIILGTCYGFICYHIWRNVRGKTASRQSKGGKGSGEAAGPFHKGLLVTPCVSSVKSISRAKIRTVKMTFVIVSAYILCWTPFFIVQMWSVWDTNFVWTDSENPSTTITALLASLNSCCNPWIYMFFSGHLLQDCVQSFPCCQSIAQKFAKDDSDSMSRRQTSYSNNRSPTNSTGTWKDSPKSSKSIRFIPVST

EC50 of contractile response, 2°-branch mesenteric artery, control mice: 0.57 nM | EC50 of contractile response, 2°-branch mesenteric artery, sRA mice: 15.9 nM | EC50 of contractile response, abdominal aortic rings, control mice: 2.19 nM | EC50 of contractile response, abdominal aortic rings, sRA mice: 3.72 nM | Maximum Response (contraction), 2°-branch mesenteric artery, control mice: 52.5% | Maximum Response (contraction), 2°-branch mesenteric artery, sRA mice: 17.3% | Maximum Response (contraction), abdominal aortic rings, control mice: 0.29 g | Maximum Response (contraction), abdominal aortic rings, sRA mice: 0.12 g
Substance: arginine vasopressin (from UniProt P01185 20-28) (peptide)
